Experimental data reported in the RNAGym collection of RNA variant scans (doi:10.7554/elife.90254).

B1: OR4K15 (parent)
chain: GUUAACGGUCAUAGGCCAUGGAAACUAGGAGCACCAUUUCGCUGCCAGUGAAGAAAUGAACAAAGAAAAUCUGGGCCAGGCAGGCAUCAAAAGAAAUAGUCUUGCGCUCAACCAGAAAGUCUGUAAUCAUUUUAAGGGUA

Variants of: B1
Assay: self-cleavage, relative activity (ratio to wild type); higher = more cleavage; in vitro, sequencing; the parent is a self-cleaving ribozyme

Row | Variant | self-cleavage
1 | GUUAACGGUCAUAGGCCGUGGAAACUAGGAGCACCAUUUCGCUGCCAGUGAAGAAAUGAACAAAGAAAAUCUGGGCCAGGCAGGCAUCAAAAGAAAUAGUCUUGCGCUCAACCAGAAAGUCUGUAAUCAUUUUAAGGGUA | 1.16
2 | GUUAACGGUCAUAGGCCAAGGAAACUAGGAGCACCAUUUCGCUGCCAGUGAAGAAAUGAACAAAGAAAAUCUGGCCCAGGCAGGCAUCAAAAGAAAUAGUCUUGCGCUCAACCAGAAAGUCUGUAAUCAUUUUAAGGGUA | 0.16
3 | GUUAACGGUCAUAGGCCAGGGAAACUAGGAGCACCAUUUCGCUGCCAGUGAAGAAAUGAACAAAGAAAAUCUGGGCCAGGCAGGCAUCAAAAGAAAUAGUCUUGCGCUCAACCAGAAAGUCUGUAAUCAUUUUAAGGGUA | 1.18
4 | GUUAACGGUCAUAGGCCAUGGAAACUAGGAGCACCAUUUCGCUGCCAGUGAAGAAAUGAACAAAGAAGAUCUGGGCCAGGCAGGCAUCAAAAGAAAUAGUCUUACGCUCAACCAGAAAGUCUGUAAUCAUUUUAAGGGUA | 0.04
5 | GUUAACGGUCACAGGCCAUGGAAACUAGGAGCACCAUUUCGCUGCCAGUGAAGAAAUGAACAAGGAAAAUCUGGGCCAGGCAGGCAUCAAAAGAAAUAGUCUUGCGCUCAACCAGAAAGUCUGUAAUCAUUUUAAGGGUA | 0.41
6 | GUUAACGGUCAUAGGCCAUGGAAACUAGGAGCACCAUUUCGCUGCCAGUGAAGAAAUGAACAAAGAAAAUCUGGGCCAGGCAGGCAUCAAAAGAAAUAGUCUCGCGCUCAACCAGAAAGUCUGUAAUCAUUUUAAGGCUA | 0.95
7 | GUUAACGGUCAUAGGCCAUGGAAACUAGGAGCACCAUUUCGCUGCCAGUGAAGAAGUGAACAAAGAAAAUCUGGGCCAGGCAGGCAUCAAAUGAAAUAGUCUUGCGCUCAACCAGAAAGUCUGUAAUCAUUUUAAGGGUA | 2.54
8 | GUUAACGGUCAUAGGCCAUGGAAACUAGGAGCACCAUUUCCCUGCCAGUGAUGAAAUGAACAAAGAAAAUCUGGGCCAGGCAGGCAUCAAAAGAAAUAGUCUUGCGCUCAACCAGAAAGUCUGUAAUCAUUUUAAGGGUA | 2.16
9 | GUUAACGGUCAUAGGCCAUGAAAACUAGGAGCACCAUUUCGCUGCCAGUGAAGAAAUGAACAAAGAAAAUCUGGGCCAGGCAGGCAUCAGAAGAAAUAGUCUUGCGCUCAACCAGAAAGUCUGUAAUCAUUUUAAGGGUA | 0.38
10 | GUUAACGGUCAUAGGCCAUGGAAACUAGGAGCACCAUUUCGCUGCCAGUGAAGAAACGAACAAAGAAAAUCUGGGCCAGGCAGGCAUCAAAAGAAAUAGUCUCGCGCUCAACCAGAAAGUCUGUAAUCAUUUUAAGGGUA | 0.86
11 | GUUAACGGUCAUAGGCCAUGGAAACUAGGAGCACCAUUUCGCUGCCAGUGAAGAAAUGAACAAAGAGAAUCUGGACCAGGCAGGCAUCAAAAGAAAUAGUCUUGCGCUCAACCAGAAAGUCUGUAAUCAUUUUAAGGGUA | 0.11
12 | GUUAACGGUCAUAGGCCAUGGAAACUAGGAGCACCAUUUCGCUGCCAGUGAAGAAAUGAACAAAGAAUAUCUGGGCCAGGCAGGCAUCAAAAGAAAUAGUCUUGCGCCCAACCAGAAAGUCUGUAAUCAUUUUAAGGGUA | 0.02
13 | GUUAACGGUCAUAGGCCAUGGGAACUAGGAGCACCAUUUCGCUGCCAGUGAAGAAAUGAACAAAGAAAAUCUGGGCCAGGCAGGCAUCAAAAGAAAUAGUCUUGCGCUCAACCAGAAAGUCUGGAAUCAUUUUAAGGGUA | 0.96
14 | GUUAACGGUCAUAGGCCAUGGAAACUAGGAGCACCAUAUCGCUGCCAGUGAAGAAAUGAACAAAGAAAAUCUGGGCCUGGCAGGCAUCAAAAGAAAUAGUCUUGCGCUCAACCAGAAAGUCUGUAAUCAUUUUAAGGGUA | 0.39
15 | GUUAACGGUCAUAGGCCAUGGAAACUAGGAGCACCAUUUCGCUGCCAGUGAAGAAAUGAACAAAGAAAAUCUGGGCCAGGCCGGCAUCAAAAGAAAUAGUCUUGCGCUCAACCAGAAAGUCUGUAAUCAUAUUAAGGGUA | 0.14
16 | GUUAACGGUCAUAGGCCAUGGAUACUAGGAGCACCAUUUCGCUGCCAGUGAAGAAAUGAACAAAGAAAAUCUGGGCCAGGCAGGCAUCAAAAGAAAUAGUCUUGCGCUCAACCAGAAAGUCUGUAAUCAUCUUAAGGGUA | 1.02
17 | GUUAACGGUCAUAGGCCAUGGAAACUAGGAGCACCAUUUCGCUGCCAGUGAAGACAUGAACAAAGAAAAUCUGGGCCCGGCAGGCAUCAAAAGAAAUAGUCUUGCGCUCAACCAGAAAGUCUGUAAUCAUUUUAAGGGUA | 0.25
18 | GUUAACGGUUAUAGGCCAUGGAAACUAGGAGCACCAUUUCGCUGCCAGUGAAGAAAUGAACAAAGAAAAUCUGGGCCAGGCAGGCAUCAAAAGAAAUAGUCUCGCGCUCAACCAGAAAGUCUGUAAUCAUUUUAAGGGUA | 1.16
19 | GUUAACGGUCAUAGGCCAUGGAAACUAGGAGCACCAUUUCGCUGCCAGUGAAGAAAUGAUCAAAGAAAAUCUGGGCCAGGCAGGCAUCAAAAGAAAUAGUCUUGCGCUCAACCAGAAAGUCUGUAAUCAUUUUAAGGGUA | 1.29
20 | GUUAACGGUCAUAGGCCAUGGAAACUAGGAGCACCAUUUCUCUGCCAGUGAAGAAAUGAACAAAGAAAAUCUGGGCCAGGCAGGCAUCGAAAGAAAUAGUCUUGCGCUCAACCAGAAAGUCUGUAAUCAUUUUAAGGGUA | 2.13
21 | GUUAACGGUCAUAGGCCAUGGAAACUAGGAGCACCAUUUCGCUGCCAGUGAAGAAAUGAACAAAGAAAAUCUGGGCCAGGCAGACAUCAAAAGAAUUAGUCUUGCGCUCAACCAGAAAGUCUGUAAUCAUUUUAAGGGUA | 2.46

Row | Variant | self-cleavage
22 | GUUAACGGUCAUAGGCCAUGGAAACUAGGAGCACCAUUUCGCUGCCAGUGAAGAAAUGAACGAAGAAAAUCUGGGGCAGGCAGGCAUCAAAAGAAAUAGUCUUGCGCUCAACCAGAAAGUCUGUAAUCAUUUUAAGGGUA | 0.06
23 | GUUAACGGUCAUAGGCCAUGGAAACUAGGAGCACCAUUUCGCUGCCAGUGAAGAGAUGAACAAAGAAAAUCUGGGCCAGGCAGGCAUCAAAAGAAAAAGUCUUGCGCUCAACCAGAAAGUCUGUAAUCAUUUUAAGGGUA | 1.51
24 | GUUAACGGUCCUAGGCCAUGGAAACUAGGAGCACCAUUUCGCUGCCAGUGAAGAAAUGAACAAAGAAAAUCUGGGCCAGGCAGGCAUCAAAAGAAAUAGUCUUGCGCUCAACCAGAAGGUCUGUAAUCAUUUUAAGGGUA | 2.4
25 | CUUAACGGUCAUAGGCCAUGGAAACUAGGAGCACCAUUUCGCUGCCAGUGAAGAAAUGAACAAAGAAAAUCUGGGCCAGGCAGGCAUCAAAAGAAAUAGUCUUGCGCUCAACCAGAAAGUCUGUAAUCAUUUUAGGGGUA | 1.85
26 | GUUAACGGUCAUAGGCCAUGGAAACUAGGAGCACCAUUUCGCUGCCAGUGAAGAAAUGAACAAAGAAAAUCUGGGCCAGGCAGGCAUCAAAGGAAAUAGUCUAGCGCUCAACCAGAAAGUCUGUAAUCAUUUUAAGGGUA | 0.8
27 | GUUAACGGUCAUAGGCCAUGGAAACUAGGAGCACCAUUUCGCUGCCAGUGAAGAAUUGAACAAAGAAAAUCUGGGCCAGGCAGGCAUCAAAAGAACUAGUCUUGCGCUCAACCAGAAAGUCUGUAAUCAUUUUAAGGGUA | 0.35
28 | GUUAACGGUCAUAGGCCAUGGAAACUAGGAGCACCACUUCGCUGCCAGUGAAGAAAUGAACGAAGAAAAUCUGGGCCAGGCAGGCAUCAAAAGAAAUAGUCUUGCGCUCAACCAGAAAGUCUGUAAUCAUUUUAAGGGUA | 1.57
29 | GUUAACGGUCAUAGGCCAUGGAAACAAGGAGCACCAUUUCGCUGCCAGUGAAGAAAUGAACAAAGAAAAUCUGGGCCAGGCAGGCAUCAAAAGAAAUAGUCUUGAGCUCAACCAGAAAGUCUGUAAUCAUUUUAAGGGUA | 0.02
30 | GUUAACGGUCAUAGGCCAUGGAAACUAGGAGCACCAUUUCGCUGCCAGUGAAGAAAUGAACAAAGAAAAUCUGGACCAGGCAGGCAUCAAAAGAAAUAGUCUUGCGCCCAACCAGAAAGUCUGUAAUCAUUUUAAGGGUA | 0.03
31 | GUUAACGGUCAUAGGCCAUGGAAACUAGGAGCACCAUUUCCCUGCCAGUGAAGAAAUGAACAAAGAUAAUCUGGGCCAGGCAGGCAUCAAAAGAAAUAGUCUUGCGCUCAACCAGAAAGUCUGUAAUCAUUUUAAGGGUA | 1.8
32 | GUUAACGGUCAUAGGCCAUGGAAACUAGGAGCACCAUUUCGCUGCCAGUGAAGAAAUGAACAAAGAAAAUCUGGGCCAGGCAGGCAUCAAAAGAGAUAGUCUUGCGCUCAACCAGAAAGUCUGUAAUCAUUUUAAGGGUG | 1.73
33 | GUUAACGGUCAUAGGCCAUGGAAACUAGGAGCACCAUUUCGCUGCCAGUGAAGAAAUGAACAAAGAAAAUCUGGGCCAGGCAGGCAUCAAAAGAAACAGUCUUGCGCUCAACCAGUAAGUCUGUAAUCAUUUUAAGGGUA | 0.11
34 | GUUAACGGUCAUAGGCCAUGGAAGCUAGGAGCACCAUUUCGCUGCCAGUGAAGAACUGAACAAAGAAAAUCUGGGCCAGGCAGGCAUCAAAAGAAAUAGUCUUGCGCUCAACCAGAAAGUCUGUAAUCAUUUUAAGGGUA | 1.02
35 | GUUAACGGUCAUAGGCCAUGGAAACUAGGAGCACCAUUUCGCUGCCAGUGAAGAAAUGAACGAAGAAAAUCUGGGCCAGGCAGGCAUCAAAAGAAAUAGUCUUGCGCUCAACCAGAAAGUCUGUAAUCAUUUUAUGGGUA | 1.67
36 | GUUAACGGUCAUAGGCCAUGGAAACUAGGAGCACCAUUUCGCUGCCAGUGUAGAAAUGAACAAAGAAAAUCUGGGCCAGGCAGGCAUCAAAAGAAAUAGUCUUGCGCUCAACCAGAAAGUCUGUAAUCAUUCUAAGGGUA | 1.06
37 | GUUAACGGUCAUAGGCCAUGGAAACUAGGAGCACCAUUUCGCUGCCAGUGAAGAAAUGAACUAAGAAAAUCUGGGCCAGGCAGGCAUUAAAAGAAAUAGUCUUGCGCUCAACCAGAAAGUCUGUAAUCAUUUUAAGGGUA | 2.34
38 | GUUAACGGUCAUAGGCCAUGGAAACUAGGAGCACCAUUUCGCUGCCAGUGAAGAAAUGAACAAAGAAAAUCUGGGCCAGGCAGGCAUCAAAAGAAAUAGUCUUGCGCUCAACCAGUAGGUCUGUAAUCAUUUUAAGGGUA | 0.07
39 | GUUAACGGUCAUAGGCCAUGGAAACUAGGAGCACCAUUUCGCUGCCAGUGAAGAAAUGAACAAAGGAAAUCUGGGCCAGGCAGGCAUCAAAAGAAAUAGACUUGCGCUCAACCAGAAAGUCUGUAAUCAUUUUAAGGGUA | 0.58
40 | GUUAACGGUCAUAGGCCAUGGAAACUAGGAGCACCUUUUCGCUGCCAAUGAAGAAAUGAACAAAGAAAAUCUGGGCCAGGCAGGCAUCAAAAGAAAUAGUCUUGCGCUCAACCAGAAAGUCUGUAAUCAUUUUAAGGGUA | 1.22
41 | GUUAACGGUCAUAGGCCAUGGAAACUAGGAGCACCAUUUCGCUGCCAGUGAAGAAAUGAACAAAGAAAAUCUGGGCCAGGCAGGCAUCAAAAGAAACAGUCUUGCGCUCAACCUGAAAGUCUGUAAUCAUUUUAAGGGUA | 0.1
